# According to patent US20140087995A1 (published 2014):
# Numbered stars: 1 amine (or outer) side, 2 acyl side, 3 side chain; on linkers, the order of the positions; unused ones are H or OH. Bridge positions count the residues as written; N and C are the ends. Side chains are listed from the residue outwards. Ends that are not written are not given here. * marks the point of attachment. C20 diacid = O=C(O)CCCCCCCCCCCCCCCCCCC(=O)*; γGlu = O=C(O)[C@H](CCC(=O)[*:2])N[*:1]
# T1: human amylin receptor (human, UniProt P30988 25-474; O60896 24-148, limits assumed)
# T1 construct: whole, on cells; Calcitonin receptor plus RAMP-3 gives the amylin 3(a) receptor; membranes of Amylin 3(a)/CRE-luc cells were used; also called hAmylin-R; hAmylinR
# T1 sequence (looked up) 1: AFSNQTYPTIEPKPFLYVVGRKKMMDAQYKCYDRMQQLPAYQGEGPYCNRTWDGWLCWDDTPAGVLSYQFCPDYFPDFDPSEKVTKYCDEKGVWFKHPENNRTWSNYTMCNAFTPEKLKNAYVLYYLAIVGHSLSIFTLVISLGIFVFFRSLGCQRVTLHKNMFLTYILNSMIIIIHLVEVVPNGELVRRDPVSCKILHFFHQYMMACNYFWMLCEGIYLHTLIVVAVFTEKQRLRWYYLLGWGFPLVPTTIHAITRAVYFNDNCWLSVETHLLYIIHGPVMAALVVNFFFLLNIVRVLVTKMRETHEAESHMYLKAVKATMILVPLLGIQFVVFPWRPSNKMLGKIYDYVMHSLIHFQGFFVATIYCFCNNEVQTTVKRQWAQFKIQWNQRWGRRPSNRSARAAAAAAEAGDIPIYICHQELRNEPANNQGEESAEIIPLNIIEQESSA
# T1 sequence (looked up) 2: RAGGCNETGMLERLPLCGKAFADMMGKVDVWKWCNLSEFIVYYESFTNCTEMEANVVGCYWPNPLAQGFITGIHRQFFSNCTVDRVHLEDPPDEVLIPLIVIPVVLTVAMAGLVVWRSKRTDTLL
# B1: N^ε1-[(4S)-4-carboxy-4-(19-carboxynonadecanoylamino)butanoyl]-[His14,Arg17,Pro21,Pro27,Pro31]-h-amylin (peptide)
# peptide: K([γGlu-C20 diacid])CNTATCATQRLAHFLRHSSPNFGAIPSSTPVGSNTY-NH2
# modifications: disulfide 2-7; N-terminus assumed
# SMILES: CC[C@H](C)[C@H](NC(=O)[C@H](C)NC(=O)CNC(=O)[C@H](Cc1ccccc1)NC(=O)[C@H](CC(N)=O)NC(=O)[C@@H]1CCCN1C(=O)[C@H](CO)NC(=O)[C@H](CO)NC(=O)[C@H](Cc1c[nH]cn1)NC(=O)[C@H](CCCNC(=N)N)NC(=O)[C@H](CC(C)C)NC(=O)[C@H](Cc1ccccc1)NC(=O)[C@H](Cc1c[nH]cn1)NC(=O)[C@H](C)NC(=O)[C@H](CC(C)C)NC(=O)[C@H](CCCNC(=N)N)NC(=O)[C@H](CCC(N)=O)NC(=O)[C@@H](NC(=O)[C@H](C)NC(=O)[C@@H]1CSSC[C@H](NC(=O)[C@@H](N)CCCCNC(=O)CC[C@H](NC(=O)CCCCCCCCCCCCCCCCCCC(=O)O)C(=O)O)C(=O)N[C@@H](CC(N)=O)C(=O)N[C@@H]([C@@H](C)O)C(=O)N[C@@H](C)C(=O)N[C@@H]([C@@H](C)O)C(=O)N1)[C@@H](C)O)C(=O)N1CCC[C@H]1C(=O)N[C@@H](CO)C(=O)N[C@@H](CO)C(=O)N[C@H](C(=O)N1CCC[C@H]1C(=O)N[C@H](C(=O)NCC(=O)N[C@@H](CO)C(=O)N[C@@H](CC(N)=O)C(=O)N[C@H](C(=O)N[C@@H](Cc1ccc(O)cc1)C(N)=O)[C@@H](C)O)C(C)C)[C@@H](C)O
# notes: also called 14H, 17R, 21P, 27P, 31P
# B2: N^ε1-[(4S)-4-carboxy-4-[[(4S)-4-carboxy-4-(19-carboxynonadecanoylamino)butanoyl]amino]butanoyl]-[Asp14,Arg17,Pro21,Pro27,Pro34,Glu35]-h-amylin (peptide)
# peptide: K([γGlu-γGlu-C20 diacid])CNTATCATQRLADFLRHSSPNFGAIPSSTNVGPETY-NH2
# modifications: disulfide 2-7; N-terminus assumed
# SMILES: CC[C@H](C)[C@H](NC(=O)[C@H](C)NC(=O)CNC(=O)[C@H](Cc1ccccc1)NC(=O)[C@H](CC(N)=O)NC(=O)[C@@H]1CCCN1C(=O)[C@H](CO)NC(=O)[C@H](CO)NC(=O)[C@H](Cc1c[nH]cn1)NC(=O)[C@H](CCCNC(=N)N)NC(=O)[C@H](CC(C)C)NC(=O)[C@H](Cc1ccccc1)NC(=O)[C@H](CC(=O)O)NC(=O)[C@H](C)NC(=O)[C@H](CC(C)C)NC(=O)[C@H](CCCNC(=N)N)NC(=O)[C@H](CCC(N)=O)NC(=O)[C@@H](NC(=O)[C@H](C)NC(=O)[C@@H]1CSSC[C@H](NC(=O)[C@@H](N)CCCCNC(=O)CC[C@H](NC(=O)CC[C@H](NC(=O)CCCCCCCCCCCCCCCCCCC(=O)O)C(=O)O)C(=O)O)C(=O)N[C@@H](CC(N)=O)C(=O)N[C@@H]([C@@H](C)O)C(=O)N[C@@H](C)C(=O)N[C@@H]([C@@H](C)O)C(=O)N1)[C@@H](C)O)C(=O)N1CCC[C@H]1C(=O)N[C@@H](CO)C(=O)N[C@@H](CO)C(=O)N[C@H](C(=O)N[C@@H](CC(N)=O)C(=O)N[C@H](C(=O)NCC(=O)N1CCC[C@H]1C(=O)N[C@@H](CCC(=O)O)C(=O)N[C@H](C(=O)N[C@@H](Cc1ccc(O)cc1)C(N)=O)[C@@H](C)O)C(C)C)[C@@H](C)O
# notes: also called 14D, 17R, 21P, 27P, 34P, 35E
# B3: N^ε1-[(4S)-4-carboxy-4-[[(4S)-4-carboxy-4-(19-carboxynonadecanoylamino)butanoyl]amino]butanoyl]-[Asp14,Arg17,Pro21,Pro27,Asp35]-h-amylin (peptide)
# peptide: K([γGlu-γGlu-C20 diacid])CNTATCATQRLADFLRHSSPNFGAIPSSTNVGSDTY-NH2
# modifications: disulfide 2-7; N-terminus assumed
# SMILES: CC[C@H](C)[C@H](NC(=O)[C@H](C)NC(=O)CNC(=O)[C@H](Cc1ccccc1)NC(=O)[C@H](CC(N)=O)NC(=O)[C@@H]1CCCN1C(=O)[C@H](CO)NC(=O)[C@H](CO)NC(=O)[C@H](Cc1c[nH]cn1)NC(=O)[C@H](CCCNC(=N)N)NC(=O)[C@H](CC(C)C)NC(=O)[C@H](Cc1ccccc1)NC(=O)[C@H](CC(=O)O)NC(=O)[C@H](C)NC(=O)[C@H](CC(C)C)NC(=O)[C@H](CCCNC(=N)N)NC(=O)[C@H](CCC(N)=O)NC(=O)[C@@H](NC(=O)[C@H](C)NC(=O)[C@@H]1CSSC[C@H](NC(=O)[C@@H](N)CCCCNC(=O)CC[C@H](NC(=O)CC[C@H](NC(=O)CCCCCCCCCCCCCCCCCCC(=O)O)C(=O)O)C(=O)O)C(=O)N[C@@H](CC(N)=O)C(=O)N[C@@H]([C@@H](C)O)C(=O)N[C@@H](C)C(=O)N[C@@H]([C@@H](C)O)C(=O)N1)[C@@H](C)O)C(=O)N1CCC[C@H]1C(=O)N[C@@H](CO)C(=O)N[C@@H](CO)C(=O)N[C@H](C(=O)N[C@@H](CC(N)=O)C(=O)N[C@H](C(=O)NCC(=O)N[C@@H](CO)C(=O)N[C@@H](CC(=O)O)C(=O)N[C@H](C(=O)N[C@@H](Cc1ccc(O)cc1)C(N)=O)[C@@H](C)O)C(C)C)[C@@H](C)O
# notes: also called 14D, 17R, 21P, 27P, 35D
# B4: N^ε1-[(4S)-4-carboxy-4-[[(4S)-4-carboxy-4-(19-carboxynonadecanoylamino)butanoyl]amino]butanoyl]-[Asp14,Arg17,Pro21,Pro27,Arg35]-h-amylin (peptide)
# peptide: K([γGlu-γGlu-C20 diacid])CNTATCATQRLADFLRHSSPNFGAIPSSTNVGSRTY-NH2
# modifications: disulfide 2-7; N-terminus assumed
# SMILES: CC[C@H](C)[C@H](NC(=O)[C@H](C)NC(=O)CNC(=O)[C@H](Cc1ccccc1)NC(=O)[C@H](CC(N)=O)NC(=O)[C@@H]1CCCN1C(=O)[C@H](CO)NC(=O)[C@H](CO)NC(=O)[C@H](Cc1c[nH]cn1)NC(=O)[C@H](CCCNC(=N)N)NC(=O)[C@H](CC(C)C)NC(=O)[C@H](Cc1ccccc1)NC(=O)[C@H](CC(=O)O)NC(=O)[C@H](C)NC(=O)[C@H](CC(C)C)NC(=O)[C@H](CCCNC(=N)N)NC(=O)[C@H](CCC(N)=O)NC(=O)[C@@H](NC(=O)[C@H](C)NC(=O)[C@@H]1CSSC[C@H](NC(=O)[C@@H](N)CCCCNC(=O)CC[C@H](NC(=O)CC[C@H](NC(=O)CCCCCCCCCCCCCCCCCCC(=O)O)C(=O)O)C(=O)O)C(=O)N[C@@H](CC(N)=O)C(=O)N[C@@H]([C@@H](C)O)C(=O)N[C@@H](C)C(=O)N[C@@H]([C@@H](C)O)C(=O)N1)[C@@H](C)O)C(=O)N1CCC[C@H]1C(=O)N[C@@H](CO)C(=O)N[C@@H](CO)C(=O)N[C@H](C(=O)N[C@@H](CC(N)=O)C(=O)N[C@H](C(=O)NCC(=O)N[C@@H](CO)C(=O)N[C@@H](CCCNC(=N)N)C(=O)N[C@H](C(=O)N[C@@H](Cc1ccc(O)cc1)C(N)=O)[C@@H](C)O)C(C)C)[C@@H](C)O
# notes: also called 14D, 17R, 21P, 27P, 35R
# B5: N^ε1-[(4S)-4-carboxy-4-(19-carboxynonadecanoylamino)butanoyl]-[His14,Arg17,Pro21,Pro27]-h-amylin (peptide)
# peptide: K([γGlu-C20 diacid])CNTATCATQRLAHFLRHSSPNFGAIPSSTNVGSNTY-NH2
# modifications: disulfide 2-7; N-terminus assumed
# SMILES: CC[C@H](C)[C@H](NC(=O)[C@H](C)NC(=O)CNC(=O)[C@H](Cc1ccccc1)NC(=O)[C@H](CC(N)=O)NC(=O)[C@@H]1CCCN1C(=O)[C@H](CO)NC(=O)[C@H](CO)NC(=O)[C@H](Cc1c[nH]cn1)NC(=O)[C@H](CCCNC(=N)N)NC(=O)[C@H](CC(C)C)NC(=O)[C@H](Cc1ccccc1)NC(=O)[C@H](Cc1c[nH]cn1)NC(=O)[C@H](C)NC(=O)[C@H](CC(C)C)NC(=O)[C@H](CCCNC(=N)N)NC(=O)[C@H](CCC(N)=O)NC(=O)[C@@H](NC(=O)[C@H](C)NC(=O)[C@@H]1CSSC[C@H](NC(=O)[C@@H](N)CCCCNC(=O)CC[C@H](NC(=O)CCCCCCCCCCCCCCCCCCC(=O)O)C(=O)O)C(=O)N[C@@H](CC(N)=O)C(=O)N[C@@H]([C@@H](C)O)C(=O)N[C@@H](C)C(=O)N[C@@H]([C@@H](C)O)C(=O)N1)[C@@H](C)O)C(=O)N1CCC[C@H]1C(=O)N[C@@H](CO)C(=O)N[C@@H](CO)C(=O)N[C@H](C(=O)N[C@@H](CC(N)=O)C(=O)N[C@H](C(=O)NCC(=O)N[C@@H](CO)C(=O)N[C@@H](CC(N)=O)C(=O)N[C@H](C(=O)N[C@@H](Cc1ccc(O)cc1)C(N)=O)[C@@H](C)O)C(C)C)[C@@H](C)O
# notes: also called 14H, 17R, 21P, 27P
# B6: N^ε1-[(4S)-4-carboxy-4-(19-carboxynonadecanoylamino)butanoyl]-[His14,Arg17,Pro21,Pro27,Pro34,Pro37]-h-amylin (peptide)
# peptide: K([γGlu-C20 diacid])CNTATCATQRLAHFLRHSSPNFGAIPSSTNVGPNTP-NH2
# modifications: disulfide 2-7; N-terminus assumed
# SMILES: CC[C@H](C)[C@H](NC(=O)[C@H](C)NC(=O)CNC(=O)[C@H](Cc1ccccc1)NC(=O)[C@H](CC(N)=O)NC(=O)[C@@H]1CCCN1C(=O)[C@H](CO)NC(=O)[C@H](CO)NC(=O)[C@H](Cc1c[nH]cn1)NC(=O)[C@H](CCCNC(=N)N)NC(=O)[C@H](CC(C)C)NC(=O)[C@H](Cc1ccccc1)NC(=O)[C@H](Cc1c[nH]cn1)NC(=O)[C@H](C)NC(=O)[C@H](CC(C)C)NC(=O)[C@H](CCCNC(=N)N)NC(=O)[C@H](CCC(N)=O)NC(=O)[C@@H](NC(=O)[C@H](C)NC(=O)[C@@H]1CSSC[C@H](NC(=O)[C@@H](N)CCCCNC(=O)CC[C@H](NC(=O)CCCCCCCCCCCCCCCCCCC(=O)O)C(=O)O)C(=O)N[C@@H](CC(N)=O)C(=O)N[C@@H]([C@@H](C)O)C(=O)N[C@@H](C)C(=O)N[C@@H]([C@@H](C)O)C(=O)N1)[C@@H](C)O)C(=O)N1CCC[C@H]1C(=O)N[C@@H](CO)C(=O)N[C@@H](CO)C(=O)N[C@H](C(=O)N[C@@H](CC(N)=O)C(=O)N[C@H](C(=O)NCC(=O)N1CCC[C@H]1C(=O)N[C@@H](CC(N)=O)C(=O)N[C@H](C(=O)N1CCC[C@H]1C(N)=O)[C@@H](C)O)C(C)C)[C@@H](C)O
# notes: also called 14H, 17R, 21P, 27P, 34P, 37P
# Biological target: T1, human amylin receptor
# Assay: SPA competition binding, displacement of 125I-rat amylin from membranes with human amylin 3(a) receptor (Assay V)
# In short: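 One-site competition analysis of SPA counts yielded IC₅₀ as a measure of affinity. Membranes were at 35 ng/μL final; incubation was 120 min at 25° C, pH 7.4.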
row,IC50 [pM],Binder
1,98,B1
2,172,B2
3,411,B3
4,697,B4
5,169,B5
6,131,B6
